Source: PMC8609364, “A Selective Tether Recruits Activated Response Regulator CheB to Its Chemoreceptor Substrate” (mBio, 2021)

How the values were obtained:
[1] = tested on: pentapeptide-bearing Tar4E and Tar4Q; test: CheB binding to pentapeptide-bearing Tar, 4E and 4Q (biolayer interferometry); parameters: species or system E. coli; settings: Tar4E versus Tar4Q
Method: (§1) We determined the kinetics of association and dissociation of methylesterase/deamidase CheB in its low- and high-activity form with the E. coli aspartate chemoreceptor Tar using biolayer interferometry ([22], [23]) and isolated receptor homodimers in Nanodiscs ([24], [25]). Apparent rate constants of association and dissociation were derived from global fits of time courses for binding and release (see Fig. S1 in the supplemental material). Equilibrium dissociation constants were calculated from those apparent rate constants.
(§2) E. coli CheB and Salmonella CheB D56C/C207S/C309S and D56C/S164A/C207S/C309S were purified as described previously ([11]). CheBC (amino acids [aa] 153 to 349) was purified using the procedure of West et al. ([40]), except that Bio-Gel P-60, was not used. […] The extent of modification was 59% for the former and 60% for the latter determined by reversed phase chromatography essentially as described previously ([26]) and confirmed by Nano LC-Nanospray QTQF mass spectroscopy. […]
(§3) Kinetics of CheB association and dissociation with Nanodisc-embedded Tar biotinylated at L378C were determined using biolayer interferometry ([22], [23]) as measured by a BLItz instrument (ForteBio, Menlo Park, CA, USA) and described in reference. […]

Tar4EΔpp and Tar4QΔpp = test: CheB binding to pentapeptide-lacking Tar, 4E and 4Q (biolayer interferometry); parameters: species or system E. coli
Method: as §1, §2, §3

CheB methylesterase = settings: relative to phosphorylation; ref [8]; cited from earlier work
Description: A high-activity form of the methylesterase/deamidase, designated CheB-P, is created by phosphorylation at a specific aspartyl residue in its N-terminal regulatory domain ([6][–][8]). However, activation is short-lived because of a high rate of autodephosphorylation ([7]), making it difficult to investigate binding of this activated form of the enzyme to chemoreceptors with confidence. Instead, we used a stable, functionally active mimic of phosphorylated CheB from Salmonella enterica subsp. enterica serovar Typhimurium (hereafter Salmonella) characterized by Saxl and coworkers ([26]). […] To investigate the role binding affinity might have in that activation, we measured binding of CheBC, a form of the methylesterase lacking the amino-terminal regulatory domain and linker, to pentapeptide-bearing and pentapeptide-lacking forms of Tar.

[2] = tested on: Tar4E and Tar4Q with or without pentapeptide; test: CheBC binding to pentapeptide-bearing and pentapeptide-lacking Tar (biolayer interferometry); parameters: species or system E. coli
Method: as §1
E. coli CheB and Salmonella CheB D56C/C207S/C309S and D56C/S164A/C207S/C309S were purified as described previously ([11]). CheBC (amino acids [aa] 153 to 349) was purified using the procedure of West et al. ([40]), except that Bio-Gel P-60, was not used. CheB D56C/C207S/C309S and CheB D56C/S164A/C207S/C309S were modified to create a disulfide-linked phosphoryl group on D56C following the procedure described in reference but using a 10-fold molar excess of DTNB [Ellman’s reagent, 5,5′-disulfanediylbis(2-nitrobenzoic acid)] rather than 90-fold and a 50-fold molar excess Na3SPO3 rather than 1,000-fold. The extent of modification was 59% for the former and 60% for the latter determined by reversed phase chromatography essentially as described previously ([26]) and confirmed by Nano LC-Nanospray QTQF mass spectroscopy. Membrane scaffold protein MSP1D1(-) ([41]) was purified as described previously ([25]). Tar4E L378C, Tar4Q L378C, Tar4EΔpp-6H L378C, and Tar4QΔpp-6H L378C were purified, incorporated into Nanodiscs at approximately one receptor dimer per disc, and biotinylated at L378C as described previously ([23], [42]). […] These activities were confirmed for representative samples used in our analyses. […]
as §3

B1: methylesterase/deamidase CheB from E. coli, low-activity, unphosphorylated form (enzyme, UniProt P07330 1-349, looked up)
chain: MSKIRVLSVDDSALMRQIMTEIINSHSDMEMVATAPDPLVARDLIKKFNPDVLTLDVEMPRMDGLDFLEKLMRLRPMPVVMVSSLTGKGSEVTLRALELGAIDFVTKPQLGIREGMLAYNEMIAEKVRTAAKASLAAHKPLSAPTTLKAGPLLSSEKLIAIGASTGGTEAIRHVLQPLPLSSPALLITQHMPPGFTRSFADRLNKLCQIGVKEAEDGERVLPGHAYIAPGDRHMELSRSGANYQIKIHDGPAVNRHRPSVDVLFHSVAKQAGRNAVGVILTGMGNDGAAGMLAMRQAGAWTLAQNEASCVVFGMPREAINMGGVCEVVDLSQVSQQMLAKISAGQAIRI
notes: CheB methylesterase/deamidase of E. coli, unphosphorylated, from plasmid pCW/cheB; measured with 2 mM DTT in the buffer; also called low-activity CheB; unmodified CheB; source: E. coli K-12 RP3098 with pCW/cheB, purified
In the case of B1, the “effect of receptor signaling state on binding” value [1] is reported as “the signaling state of the chemoreceptor coiled-coil body did not influence the binding of its pentapeptide to low-activity CheB”, the “preference for substrate (4Q) versus product (4E) form” value (Tar4EΔpp and Tar4QΔpp; Tar4QΔpp versus Tar4EΔpp) is reported as “not significantly different” and the “fold weaker than binding to pentapeptide / pentapeptide-bearing receptor” value (Tar4EΔpp and Tar4QΔpp; ratio of KD, Tar4Δpp versus pentapeptide-bearing) is reported as “approximately fourfold”.

B2: CheBC, catalytic domain of E. coli CheB lacking the regulatory domain and linker (domain or fragment)
chain: LSSEKLIAIGASTGGTEAIRHVLQPLPLSSPALLITQHMPPGFTRSFADRLNKLCQIGVKEAEDGERVLPGHAYIAPGDRHMELSRSGANYQIKIHDGPAVNRHRPSVDVLFHSVAKQAGRNAVGVILTGMGNDGAAGMLAMRQAGAWTLAQNEASCVVFGMPREAINMGGVCEVVDLSQVSQQMLAKISAGQAIRI
For B2, the “activation by deletion of the regulatory domain” value (CheB methylesterase) is given as “not as effectively as by phosphorylation”, the “binding to chemoreceptors versus CheB-P*” value ([2]; compared with activated phosphorylation mimic CheB-P*) is given as “bound much more weakly to chemoreceptors than the activated phosphorylation mimic CheB-P*” and the “preference for product form Tar4E versus substrate form Tar4Q” value ([2]; ratio of KD) is given as “approximately twofold”. The “effect of presence or absence of pentapeptide on binding” value ([2]; with versus without NWETF) was “no significant difference in binding in the presence or absence of pentapeptide”.
